A protein production outcome set (Wang et al. 2014)

Experiment: label from the status in PepcDB records
For “PDLYNHAIVIGYGRVGSMLAQLLQSRHVPLLVIDDNSEHVLKAHAAGIPAIRGSAAADLVLAEAHPERAKIAVLAIPQPLEAGEILAKLRALNPELTLVARAQNDAEVKHLLGHGADATVVAEHEMAHSLAEMVLSSTNHPNSTRLQPAIA”, the protein production was “failed”.
For “PDVSVQEMVSAYTTFVNKGIRVNPLPITRIEDQYGNVVAQFSPNMVEVLPPDAAYKMLYMLKSVVDGGTGSRLRYRYGFKLDMGGKTGTTQNNSD”, the protein production was “failed”.
In the case of “PEEQRQKLPDITAADPLEYKKQLLKLAISRIVFMRRFIADSLYYLPDVFFVTDKDNNIILLNKAAENLTAELGAQYHYRMPISTILNHLHNEEGHRINFDQVRNNEINSQCYAENGRAFDLRIAACRQVINQPDGWLIMLIDISAVKSAEEQRQRILHLLSHDMRSPQISILALIDRFSRTSC”, the protein production is reported as “failed”.
In the case of “PFCAMENQVLVIRIKIPNSGAVDWTVHSGPQLLFRDVLDVIGQVLPEATTTAFEYEDEDGDRITVRSDEEMKAMLSYYYSTVMEQQVNGQLIEPLQIFPR”, the protein production is reported as “not failed”.
With “PGSTDFNGALILGLGIDLEKAVGWKNAFFEVEGLQYNGQPVNFAAGSVQGYNSIEAGPPLNRTELYQLWLNQTFLDNRLSFRVGKLIPSMNFGYVGRPFVTQTNPQLFTSTTGLIYTPVFVGPAMLGFIPGYYNSAFGLYGSWKSWGAPGDNPATPNGWYTQAGIYDGRGAQGVQTGLTWPNFSGALFSVAEVGGTWTPYADDPATGWGSVAVGGWRQSGPLTAPGGAFEAQTGGMYAYLVQKLGKFRDSEDQNGIVGFVQGGWNSSSTALMHSSLGFGLTFIAPFGDRPLDSYGFGFSWARLNANPLAGYGFNSYETMIQLYAQYHLVGNLFIQPVLTVLPTPGSGGAGAPSVSGTVQLTFPF” the protein production was “failed”.
For “PLGVSAAGALDRASLRRANRLVGNASSAAAIESVNGGLTVEAVGDQVIAVTGAPTTLTIESPSWVGSDDDDGGARPGGKRTVPMAAPFALLDGELLTLGAPESGFRNYVAIRGGVDAPEVLGSRSADTMSGIGPAPLAIRQVLATGEQTASTAVGAPELQPDFPGAGVTVLDVVPGPRADWFDQEALDSLCNQEWLVTPQSNRVGMRLDGKPLERTREGELPSEGTMAGALQIPPAGLPVLFLADHPITGGYPVIGVVRDEHLDRAAQVPIGGRIRFRLVPDSADFTTTTTKTPEK”, the protein production was “not failed”.
With “PLSFSLLPATRDDIAMIVDRKRAQIARTHQYDVFACGWTVTLLERLVDASAEDFGLRTATLRAGGRVVAAELGLLSEGRYHLWLPIYDPEFARYSPGALMTLDTLEALAGLGVSRVDFGVDAD” the protein production was “failed”.
In the case of “PNEKFCFEGFLPQKKGRMTKLKSLVDEHRTMVFYESPHRLLKTLTQFAEYFGPERQVSVSREISKIHEETVRGTLSELIEHFTATDPRGEIVIVLAGIDD”, the protein production is reported as “not failed”.
In the case of “PPAAVGPWDDILAPLYRYTRARARELAETRETMQSMLAAAQALPDGVVTLNEDFQIDWANRMARRHLGLRLPADRGHNLLNLLRAPEFVAYAHRGHWPEPILVRLSLNGQERVMMIHLAGYAS”, the protein production is reported as “failed”.
For “PPEAYSLDTAIFVLETRDYRLSDVKEIDSYGDVEMKGKVAVFETEYGPVFLYVYKGEEAKKIWKKLNGRAGFVSIRSVLDLPNMGKFSTVSNGKKIVAWWRKNWLFIVEGKNGVEEFVKHVYRVYEEMKQ”, the protein production was “not failed”.
In the case of “PPLYVPEQLVVHKETHQAHVMIGSRGYNAYDDKRTALYLLNNILGGPGMNSRLNVSLRERRGLVYTVESNLTSYTDTGAFCIYFGTDPEDVDTCLKLTYKELKRMRDVKMTSSQLMAAKKQLIGQIGVASDNNENNALGMAKTFLHYNKYESSESVFRRIEALTAEGLLEVANEMFAEEYLSTLIY”, the protein production is reported as “failed”.
In the case of “PQALEFEYMRWIATGARAFIDAHQDASKLRITHLGGGACTMARYFADVYPQSRNTVVELDAELARLSREWFDIPRAPRVKIRVDDARMVAESFTPASRDVIIRDVFAGAITPQNFTTVEFFEHCHRGLAPGGLYVANCGDHSDLRGAKSELAGMMEVFEHVAVIADPPMLKGRRYGNIILMGSDTEFF”, the protein production is reported as “failed”.
For “PQPKIGILLANLGTPDNYDYWSMRRYLNEFLSDKRVIDYPAWKWQPLLQILILSKRPFSSGANYKLIWNHDKGESPLMTITKDQTAAIAAEIRSLYGNRVMVDFCMRYGNPSTESRVRAMVEAGCEKILFFPLYPHYAGATSATANDEFFRAMMKEKRQPAVRTVPEYYDNPLYIDALAQSVERAYAQLDHRPDVLVASYHGMPKRYLMAGD”, the protein production was “failed”.
For “PSHSLQAPEVRFSKEMECLQAMGFVNYNANLQALIATDGDTNAAIYKLKSSQGF”, the protein production was “not failed”.
